{
  "source": "patent US9029505B2",
  "about": "“Modified vasoactive intestinal peptides” (Phasebio Pharmaceuticals, Inc., priority 2009, dated 2015)",
  "key": {"DPP IV": {"molecular_target": "DPP IV (Homo sapiens, UniProt P27487)", "sequence (P27487 whole entry, species assumed, the tested form may be a part)": "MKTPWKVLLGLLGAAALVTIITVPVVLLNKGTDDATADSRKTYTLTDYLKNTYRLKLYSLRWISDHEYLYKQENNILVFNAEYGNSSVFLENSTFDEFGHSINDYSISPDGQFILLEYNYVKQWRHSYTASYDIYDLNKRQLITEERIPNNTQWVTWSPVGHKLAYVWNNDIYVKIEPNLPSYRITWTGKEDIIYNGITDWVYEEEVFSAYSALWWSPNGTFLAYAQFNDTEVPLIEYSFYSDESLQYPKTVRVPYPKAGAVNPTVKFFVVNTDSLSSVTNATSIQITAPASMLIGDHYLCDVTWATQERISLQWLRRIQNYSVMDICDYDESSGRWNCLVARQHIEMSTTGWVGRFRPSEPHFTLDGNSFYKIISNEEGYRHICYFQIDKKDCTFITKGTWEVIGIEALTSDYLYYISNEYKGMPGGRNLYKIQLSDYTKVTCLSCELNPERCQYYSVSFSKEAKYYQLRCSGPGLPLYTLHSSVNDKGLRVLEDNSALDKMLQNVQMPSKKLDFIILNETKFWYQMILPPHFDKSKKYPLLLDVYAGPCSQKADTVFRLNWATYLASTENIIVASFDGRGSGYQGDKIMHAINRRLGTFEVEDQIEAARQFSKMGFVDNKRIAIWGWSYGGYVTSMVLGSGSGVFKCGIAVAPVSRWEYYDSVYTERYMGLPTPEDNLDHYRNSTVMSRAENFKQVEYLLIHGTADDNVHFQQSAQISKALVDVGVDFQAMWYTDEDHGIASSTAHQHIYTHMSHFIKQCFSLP", "experiment": "DPP IV treatment of the fusion protein", "assay_type": "biochemical", "conditions": "removal of both AA and HS from the N-terminus", "text": "Plasmid pPB1064 was therefore constructed, where the N-terminus was changed to MAAHG, SEQ ID NO: 45, instead of MAAHS, SEQ ID NO: 46, because HG is more resistant to DPP IV than HS."}, "[1]": {"system": "Spontaneously hypertensive rats", "experiment": "blood pressure effect in spontaneously hypertensive rats", "assay_type": "in vivo, rat", "conditions": "10 mg/kg subcutaneous", "method": "The activity of the modified VIP-ELP fusion protein PB1047 was also tested in vivo. Specifically, effects of VIP-ELP fusion protein on blood pressure were tested. Spontaneously hypertensive rats were treated subcutaneous with PB1047 (10 mg/kg) or buffer control and their blood pressures were measured at several points after administration of the fusion protein. Five animals were used for each group and the graphs show the average and the standard deviation."}, "[2]": {"molecular_target": "T1, human Vasoactive Intestinal Peptide Receptor 2 (VPAC2) (Homo sapiens, UniProt P41587)", "T1 construct": "expressed in transfected cells; host or cells: Chinese Hamster Ovary (CHO) cells", "T1 sequence (P41587 24-438)": "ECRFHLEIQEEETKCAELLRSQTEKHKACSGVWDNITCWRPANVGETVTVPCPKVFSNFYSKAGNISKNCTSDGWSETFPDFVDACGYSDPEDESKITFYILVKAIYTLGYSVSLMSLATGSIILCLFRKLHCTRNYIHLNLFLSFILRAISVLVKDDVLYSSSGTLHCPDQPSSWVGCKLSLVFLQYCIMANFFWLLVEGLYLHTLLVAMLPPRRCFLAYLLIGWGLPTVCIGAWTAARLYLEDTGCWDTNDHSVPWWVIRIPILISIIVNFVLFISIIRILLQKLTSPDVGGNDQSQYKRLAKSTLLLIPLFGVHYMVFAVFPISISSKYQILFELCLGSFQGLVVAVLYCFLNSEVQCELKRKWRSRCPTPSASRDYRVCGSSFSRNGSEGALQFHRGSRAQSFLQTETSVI", "experiment": "cell-based cAMP bioassay in CHO cells expressing VPAC2", "conditions": "for activity compared with native VIP protein for VPAC2 receptor (cAMP produced): CHO cells expressing VPAC2, 30 minute incubation, FIG. 8, PB1047 DPP-IV treated before addition", "text": "(§1) To measure the in vitro biological activity and potency of VIP or VIP-ELP fusion proteins, a cell-based bioassay was used. The assay measures the increase in intracellular cyclic adenosine monophosphate (cAMP) concentration in response to treatment with VIP or VIP-ELP fusion proteins in Chinese Hamster Ovary (CHO) cells that have been engineered to express either the human Vasoactive Intestinal Peptide Receptor 2 (VPAC2) or the human Vasoactive Intestinal Peptide Receptor 1 (VPAC1). […] Since the amount of cAMP accumulation in cells after receptor-mediated ligand binding and activation is directly proportional to the amount of intact peptide or fusion protein present, the assay can be used to determine bioactivity and relative potency.\nIn this example, the activity of VIP-ELP fusion proteins PB1046 and PB1047 was tested. Construct PB1046 contains VIP with a Met at the N-terminus and construct PB1047 contains VIP with Ala-Ala at its N-terminus. Both constructs have ELP (1-120) at their C-terminus. In the first experiment, the activity of the constructs was tested using CHO cells expressing the VIP receptor VPAC2. After 30 minute incubations of various concentrations of the fusion proteins with the cell, the cells were lysed and the amount of cAMP produced was measured using a commercial kit. PB1047 was DPP-IV treated prior to the addition to the cells.\nFIG. 13 illustrates the activity of PB1120 for the VPAC2 receptor. Like the results seen for the VPAC1 receptor, PB1120 show slightly less activity (˜1.5 fold less) than the native VIP peptide for VPAC2. However, in contrast to the results seen with VPAC1. PB1046 was equipotent for VPAC2 as compared to the native peptide."}, "[3]": {"molecular_target": "T2, human Vasoactive Intestinal Peptide Receptor 1 (VPAC1) (Homo sapiens, UniProt P32241)", "T2 construct": "expressed in transfected cells; host or cells: Chinese Hamster Ovary (CHO) cells", "T2 sequence (P32241 31-457)": "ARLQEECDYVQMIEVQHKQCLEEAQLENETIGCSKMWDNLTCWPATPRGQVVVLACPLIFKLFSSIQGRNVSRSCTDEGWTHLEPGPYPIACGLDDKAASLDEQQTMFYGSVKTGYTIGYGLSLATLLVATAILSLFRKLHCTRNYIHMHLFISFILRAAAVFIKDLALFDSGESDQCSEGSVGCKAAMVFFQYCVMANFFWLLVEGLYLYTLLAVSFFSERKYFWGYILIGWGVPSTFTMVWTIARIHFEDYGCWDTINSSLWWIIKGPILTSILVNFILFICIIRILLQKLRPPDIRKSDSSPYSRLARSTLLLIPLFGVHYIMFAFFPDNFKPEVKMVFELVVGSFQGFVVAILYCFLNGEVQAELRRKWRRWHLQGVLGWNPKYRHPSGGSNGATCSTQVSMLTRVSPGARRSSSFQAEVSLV", "experiment": "cell-based cAMP bioassay in CHO cells expressing VPAC1", "conditions": "for activity compared with native VIP protein for VPAC1 receptor (cAMP produced): CHO cells expressing VPAC1, 30 minute incubation, FIG. 9, PB1047 DPP-IV treated before addition; for fold less active than the native VIP peptide on the VPAC1 receptor: FIG. 12", "text": "as §1\nThe activity of PB1046 and PB1047 was also tested using CHO cells expressing the VIP receptor VPAC1. After 30 minute incubations of various concentrations of the fusion proteins with CHO cells, cells were lysed and the amount of cAMP produced was measured using a commercial kit. PB1047 was DPP-IV treated prior to the addition to the cells.\nThe activity of the PB1120 fusion peptide was tested in vitro. The activity was tested using an assay utilizing CHO cells expressing VIP receptor (VPAC1) as described above in Example 3."}, "[4]": {"conditions": "Domschke 1978, Burhol 1978; cited from earlier work"}, "[5]": {"experiment": "pharmacokinetic profile in monkeys after single SC injection", "assay_type": "in vivo, monkey", "conditions": "single SC 3 mg/kg, to day 4", "method": "In addition to the biological potency assays described above, the pharmacokinetic profile of the VIP-ELP fusion protein PB1120 was also examined. Monkeys were given single subcutaneous (SC) injections (dosed at 3 mg/kg) of PB1120 and plasma drug concentrations were measured daily over the course of one week. Three animals were used and the graphs show the average and the standard deviation."}, "rats": {"system": "rats", "experiment": "effects on systolic, diastolic and mean arterial blood pressure in rats", "assay_type": "in vivo, rat", "conditions": "9 hrs post-injection", "method": "To measure the effects of the modified VIP-ELP fusion protein PB1120 on systolic, diastolic, and mean arterial blood pressure, rats were given single, subcutaneous injections of 0.1 mg/kg, 1 mg/kg, or 5 mg/kg of PB1120 and evaluated over 3-hr intervals. FIGS. 15A, 15B, and 15C show the average change in systolic, diastolic, and mean arterial pressure, respectively."}},
  "note": "No end group written: not given here. ELP1‑120 = 120 ELP1 units (VPGXG) fused at the C-terminus",
  "data": [
    {"molecule": "PB1047: VIP-ELP fusion with tripeptide MAA encoded at N-terminus (Ala-Ala after Met removal), ELP1-120 at C-terminus (SEQ ID 18) (MAAHSDAVFTDNYTRLRKQMAVKKYLNSILN-{ELP1‑120}; also: recombinant fusion with ELP1-120 at C-terminus)", "values": [
      {"measurement": "effect of DPP IV treatment on the peptide", "setting": "DPP IV", "result": "inactivation of the peptide"},
      {"measurement": "duration of blood pressure reduction post administration", "setting": "[1]; systolic and diastolic", "result": "at least 12 hours"},
      {"measurement": "diastolic blood pressure", "setting": "[1]; vs buffer control, FIG. 10", "result": "significantly reduced"},
      {"measurement": "systolic blood pressure", "setting": "[1]; vs buffer control, FIG. 10", "result": "significantly reduced"},
      {"measurement": "activity compared with native VIP protein for VPAC2 receptor (cAMP produced)", "setting": "[2]", "result": "less active"},
      {"measurement": "activity compared with native VIP protein for VPAC1 receptor (cAMP produced)", "setting": "[3]", "result": "about the same as it was in the test for VPAC2 receptor"}
    ]},
    {"molecule": "Vasoactive intestinal peptide [VIP]", "values": [
      {"measurement": "half-life in blood", "setting": "[4]", "result": "less than 2 minutes"}
    ]},
    {"molecule": "PB1046: VIP-ELP fusion protein with Met at the N-terminus and ELP1-120 at the C-terminus (SEQ ID NO. 17; FIG. 1 SEQ ID NO: 14) (MHSDAVFTDNYTRLRKQMAVKKYLNSILN-{ELP1‑120}; also: recombinant VIP-ELP fusion)", "values": [
      {"measurement": "activity compared with native VIP protein for VPAC2 receptor (cAMP produced)", "setting": "[2]", "result": "somewhat more active than native VIP protein"},
      {"measurement": "potency for VPAC2 compared to the native peptide", "setting": "[2]; FIG. 13", "result": "equipotent"},
      {"measurement": "receptor selectivity VPAC2 over VPAC1", "setting": "[2]; comparison of FIG. 8 and FIG. 9", "result": "selectively activates VPAC2 receptor over VPAC1 receptor"},
      {"measurement": "activity compared with native VIP protein for VPAC1 receptor (cAMP produced)", "setting": "[3]", "result": "much less active than native VIP protein"},
      {"measurement": "fold less active than the native VIP peptide on the VPAC1 receptor", "setting": "[3]", "result": "approximately 11 fold"}
    ]},
    {"molecule": "PB1120: VIP-ELP1-120 fusion peptide encoded by pPB1120 (protein, VIP ELP1-120, VIP-ELP1-120 fusion peptide encoded by pPB1120) HSDAVFTDNYTRLRKQMAVKKYLNSILNVPGVGVPGVGVPGGGVPGAGVPGVGVPGVGVPGVGVPGGGVPGAGVPGGGVPGVGVPGVGVPGGGVPGAGVPGVGVPGVGVPGVGVPGGGVPGAGVPGGGVPGVGVPGVGVPGGGVPGAGVPGVGVPGVGVPGVGVPGGGVPGAGVPGGGVPGVGVPGVGVPGGGVPGAGVPGVGVPGVGVPGVGVPGGGVPGAGVPGGGVPGVGVPGVGVPGGGVPGAGVPGVGVPGVGVPGVGVPGGGVPGAGVPGGGVPGVGVPGVGVPGGGVPGAGVPGVGVPGVGVPGVGVPGGGVPGAGVPGGGVPGVGVPGVGVPGGGVPGAGVPGVGVPGVGVPGVGVPGGGVPGAGVPGGGVPGVGVPGVGVPGGGVPGAGVPGVGVPGVGVPGVGVPGGGVPGAGVPGGGVPGVGVPGVGVPGGGVPGAGVPGVGVPGVGVPGVGVPGGGVPGAGVPGGGVPGVGVPGVGVPGGGVPGAGVPGVGVPGVGVPGVGVPGGGVPGAGVPGGGVPGVGVPGVGVPGGGVPGAGVPGVGVPGVGVPGVGVPGGGVPGAGVPGGGVPGVGVPGVGVPGGGVPGAGVPGVGVPGVGVPGVGVPGGGVPGAGVPGGGVPGWP", "values": [
      {"measurement": "portion of initial dose remaining in the circulation", "setting": "[5]", "result": "More than half"},
      {"measurement": "diastolic pressure", "setting": "rats; 1 mg/kg SC", "result": "significant reductions"},
      {"measurement": "mean arterial pressure", "setting": "rats; 1 mg/kg SC", "result": "significant reductions"},
      {"measurement": "systolic pressure", "setting": "rats; 1 mg/kg SC", "result": "significant reductions"},
      {"measurement": "diastolic pressure", "setting": "rats; 5 mg/kg SC", "result": "significant reductions"},
      {"measurement": "mean arterial pressure", "setting": "rats; 5 mg/kg SC", "result": "significant reductions"},
      {"measurement": "systolic pressure", "setting": "rats; 5 mg/kg SC", "result": "significant reductions"},
      {"measurement": "fold less activity than the native VIP peptide for VPAC2", "setting": "[2]; FIG. 13", "result": "~1.5", "unit": "fold"},
      {"measurement": "fold less active than the native VIP peptide on the VPAC1 receptor", "setting": "[3]", "result": "approximately 1.4 fold"}
    ]}
  ]
}
